Measured values reported in article PMC6627233 (The EMBO Journal, 2019).

Molecular target: Flag-tagged MAVS (UniProt Q7Z434 1-540)
Assay: far-Western, overlay or dot blot

Sequence of Flag-tagged MAVS (Q7Z434 whole entry): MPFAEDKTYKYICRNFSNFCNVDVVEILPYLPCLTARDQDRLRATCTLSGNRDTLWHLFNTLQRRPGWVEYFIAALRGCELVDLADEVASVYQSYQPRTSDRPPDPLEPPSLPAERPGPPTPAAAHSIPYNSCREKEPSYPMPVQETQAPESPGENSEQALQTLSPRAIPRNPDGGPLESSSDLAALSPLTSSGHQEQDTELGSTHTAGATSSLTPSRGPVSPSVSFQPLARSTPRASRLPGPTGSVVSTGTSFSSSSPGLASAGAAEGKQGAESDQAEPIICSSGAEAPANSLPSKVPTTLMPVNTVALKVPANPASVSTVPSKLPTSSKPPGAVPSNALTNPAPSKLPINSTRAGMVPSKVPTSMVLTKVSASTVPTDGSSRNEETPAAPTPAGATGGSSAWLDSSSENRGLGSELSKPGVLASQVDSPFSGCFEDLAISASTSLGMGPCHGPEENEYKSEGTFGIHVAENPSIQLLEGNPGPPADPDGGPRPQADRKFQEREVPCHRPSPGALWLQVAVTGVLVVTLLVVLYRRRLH

B1: GST-tagged RNF34 (natural protein)
chain: MKAGATSMWASCCGLLNEVMGTGAVRGQQSAFAGATGPFRFTPNPEFSTYPPAATEGPNIVCKACGLSFSVFRKKHVCCDCKKDFCSVCSVLQENLRRCSTCHLLQETAFQRPQLMRLKVKDLRQYLILRNIPIDTCREKEDLVDLVLCHHGLGSEDDMDTSSLNSSRSQTSSFFTRSFFSNYTAPSATMSSFQGELMDGDQTSRSGVPAQVQSEITSANTEDDDDDDDEDDDDEEENAEDRNPGLSKERVRASLSDLSSLDDVEGMSVRQLKEILARNFVNYSGCCEKWELVEKVNRLYKENEENQKSYGERLQLQDEEDDSLCRICMDAVIDCVLLECGHMVTCTKCGKRMSECPICRQYVVRAVHVFKS
binding result: binds
